Patent US20220249640A1

Target: PD-1 (soluble, biotinylated, on sensors or coated on plates) (human) (UniProt Q15116)
Assay: method not stated at the list; Octet curves in FIG. 29

PD-1 (soluble, biotinylated, on sensors or coated on plates) (human), sequence (Q15116 25-167 limits assumed): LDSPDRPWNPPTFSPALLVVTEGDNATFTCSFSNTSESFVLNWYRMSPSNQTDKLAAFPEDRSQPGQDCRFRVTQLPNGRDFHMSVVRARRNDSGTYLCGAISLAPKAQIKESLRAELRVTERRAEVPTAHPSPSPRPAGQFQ

Kd: 0.1 nM
B1: PD1#3 scFv-Fc (Fc fusion, part only; not given: Fc, linker, domain order, not shown: another chain or arm of the molecule; a dimerising Fc or GST; small tags and cut ends)
VH: QVQLVQSGAEVKKPGSSVKVSCKTSGYTFNRFGLTWVRQAPGQGLEWMGWTNPYNGNTRYAQKFQGRVTMTTDTSTSTAYMELRSLRSDDTAMYFCARVVAVNGMDVWGQGTTVTVSS
VL: NFMLTQPHSVSESPGKTVTISCTRNSGSIAAYYVQWYQQRPGSSPTTVIYEDNQRPSGVPDRFSGSIDSSSNSASLTISGLKTEDEADYYCQSYDSSNLWVFGGGTKLTVL
